Laboratory results as given in publication PMC8767186.

Molecular target: Spc105-mCherry (S. cerevisiae) (UniProt P53148)
Test: co-IP; RFP-Trap beads (Chromotek) on cleared yeast lysates in buffer H 0.15 (25 mM HEPES pH 8.0, 150 mM KCl, 0.1% IGEPAL), overnight; blots with anti-GFP and anti-DsRed; band intensities by ImageJ, normalised to full length, input and Spc105 IP

UniProt P53148, sequence (P53148 whole entry): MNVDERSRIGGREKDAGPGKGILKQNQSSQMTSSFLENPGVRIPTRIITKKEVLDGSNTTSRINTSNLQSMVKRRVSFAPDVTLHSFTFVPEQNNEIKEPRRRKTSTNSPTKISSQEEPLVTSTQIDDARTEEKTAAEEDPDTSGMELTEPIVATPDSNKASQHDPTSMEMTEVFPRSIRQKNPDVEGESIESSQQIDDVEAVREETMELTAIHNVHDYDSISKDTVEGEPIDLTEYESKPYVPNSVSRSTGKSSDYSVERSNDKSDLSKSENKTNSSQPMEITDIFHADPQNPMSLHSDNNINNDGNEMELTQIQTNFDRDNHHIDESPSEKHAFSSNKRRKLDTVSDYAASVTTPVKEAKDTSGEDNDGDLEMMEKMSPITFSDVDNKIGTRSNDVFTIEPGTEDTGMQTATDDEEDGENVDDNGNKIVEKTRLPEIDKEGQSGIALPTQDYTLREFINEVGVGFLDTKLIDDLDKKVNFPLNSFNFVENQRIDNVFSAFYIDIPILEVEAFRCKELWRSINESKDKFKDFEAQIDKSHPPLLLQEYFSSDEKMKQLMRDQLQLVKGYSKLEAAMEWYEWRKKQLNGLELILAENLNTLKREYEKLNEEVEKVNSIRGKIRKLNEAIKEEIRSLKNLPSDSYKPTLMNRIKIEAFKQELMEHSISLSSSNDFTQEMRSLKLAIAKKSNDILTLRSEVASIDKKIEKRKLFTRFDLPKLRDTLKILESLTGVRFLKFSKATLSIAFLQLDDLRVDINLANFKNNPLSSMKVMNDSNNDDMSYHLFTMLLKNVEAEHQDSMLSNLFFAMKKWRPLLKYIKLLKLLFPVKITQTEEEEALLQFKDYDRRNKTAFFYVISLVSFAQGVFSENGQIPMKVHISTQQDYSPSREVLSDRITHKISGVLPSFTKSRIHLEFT

GFP-kre28^Δ127–182 (from UniProt Q04431 1-385) (natural protein)
reduction of co-precipitation against full-length Kre28: 40%
